Series [1] concerns the target T1, CR8 bHLH domain (BHLHE40/DEC1) (human, UniProt O14503 SEQ:52-107).
T1 chain: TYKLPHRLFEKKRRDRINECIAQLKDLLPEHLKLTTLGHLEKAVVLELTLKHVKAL
The series is described as follows: EMSA; 20 mM Hepes pH 7.6, 50 mM KCl, 10 mM DTT, poly(dI-dC), room temperature; self-competition partial at 50-fold and complete at 500-fold excess. To be noted: tags: N-terminal His tag (pRSET-A, Xpress System), 16.6 kD with tag; chain copies: 2 (homodimer, stated); label: 32P 5' end; 5' GATC overhangs. The procedure:
One strand of the oligonucleotide was labeled with [g-32P]ATP by T4 polynucleotide kinase, hybridized with three times excess of the opposite strand, and purified using MERmaid oligonucleotide purification kit (BIO 101). 150 ng of the protein was allowed to bind to 50,000 cpm (equivalent to 0.5 ng in a typical experiment) of the labeled probe for 15 min at room temperature in 20 mM Hepes, pH 7.6, 50 mM KCl, 10 mM DTT, 5% glycerol, 0.5 mM EDTA and 0.3 mg/ml BSA. Two microgram of poly (dI-dC) was added to each […] reaction as on-specific DNA. Samples were analyzed on a 5% native polyacrylamide gel and visualized by autoradiography.
To examine the relative binding affinity, a large excess of non-labeled oligonucleotide was added to the reaction as competitor. […] 0.5 ng of the radiolabeled Class B probe was incubated with CR8 bHLH in the absence (lane 1) or the presence (lanes 2 to 7) of either 25 ng (50-fold excess; lanes 2, 4 and 6) and 250 ng (500-fold excess; lanes 3, 5 and 7) of unlabeled competitors. […] Thus, since all these experiments were done in the absence of other HLH proteins, it appears that CR8 bHLH bound to the Class B sequence as a homodimer with the highest affinity.

The target in series [2] is T1, CR8 bHLH domain (BHLHE40/DEC1). The series is described as follows: EMSA; same buffer. The conditions noted are these: tags: N-terminal His tag (pRSET-A, Xpress System), 16.6 kD with tag; chain copies: 2 (homodimer, stated); label: 32P 5' end; 5' GATC overhangs. The text has this:
(§1) The oligonucleotide probes used for the electrophoretic mobility shift assay (EMSA) are as follows: the Class A site used was the CACCTG hexamer (CAGGTG for the opposite strand) from the T5 promoter region of the Drosophila AS-C (Villares, R. et al. (1987) *Cell* 550:415–424) (5'-[…]-3' (SEQ ID NO:17) and 5'-[…]-3' (SEQ ID NO:18) for the opposite strand), the Class B site was the CACGTG hexamer from the USF binding site in the adenovirus major late promoter (Gregor, P. D. et al. (1990) *Genes & Dev.* 4:1730–1740) (5'-[…]-3' (SEQ ID NO:19) and 5'-[…]-3') (SEQ ID NO:20), the Class C site was the CACGCG hexamer (CGCGTG for the opposite strand) from the AS-C T5 promoter (5'-[…]-3' (SEQ ID NO:21) and 5'-[…]-3') (SEQ ID NO:22), and the N-box (CACNAG) was the double hexamer sequence from the Enhancer of split [E(spl)] m8 promoter (Klimbt, C. et al. (1989) *EMBO J.* 8:203–210) (5'-[…]-3' (SEQ ID NO:23) and 5'-[…]-3' (SEQ ID NO:24). One strand of the oligonucleotide was labeled with [g-32P]ATP by T4 polynucleotide kinase, hybridized with three times excess of the opposite strand, and purified using MERmaid oligonucleotide purification kit (BIO 101). […] Samples were analyzed on a 5% native polyacrylamide gel and visualized by autoradiography.

Series [3] concerns the target T2, daughterless (da) bHLH domain (Drosophila melanogaster, UniProt P11420 P11420:554-607).
T2 sequence: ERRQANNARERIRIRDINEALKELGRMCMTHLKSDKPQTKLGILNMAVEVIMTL
The series can be described thus: EMSA; positive control. The conditions noted are these: tags: supplied by Dr. Michael Caudy, Cornell University Medical College; label: 32P 5' end; 5' GATC overhangs.
Description: as §1

B1: Class B E-box probe (USF site, adenovirus major late promoter) (dsDNA)
DNA 1: GATCGGTGTAGGCCACGTGACCGGGTGT
DNA 2: GATCACACCCGGTCACGTGGCCTACACC
Consider B1, for which the binding result in series [1] is given as “binds”.

B2: Class C probe (AS-C T5 promoter) (dsDNA)
DNA 1: GATCGGCAGCCGGCACGCGACAGGGCC
DNA 2: GATCGGCCCTGTCGCGTGCCGGCTGCC
B2: the binding result in series [2] was “binds”.

B3: Class A E-box probe (AS-C T5 promoter) (dsDNA)
DNA 1: GATCGTAGTCACGCAGGTGGGATCCCTA
DNA 2: GATCTAGGGATCCCACCTGCGTGACTAC
Consider B3, for which the binding result is reported as “binds” in series [3] and “no binding” in series [2].

The values are drawn from patent publication US5871960, “Nucleic acids encoding CR5 polypeptide, vector and transformed cell thereof, and expression thereof” (Trustees of Dartmouth College).
